Read-outs that look alike come from different tables or passages of the source. Bridges are numbered along the chain shown (N, C = ends). Where no end group is shown, it is not given here. [ ]: non-standard residue; d: D form. hArg = N=C(N)NCCCC[C@H](N)C(=O)O; staple K4 = not defined here; Nle = CCCC[C@H](N)C(=O)O; L12 = not defined here; L4A = not defined here; L5A = not defined here; K4 = not defined here; L1 = not defined here; L5 = not defined here; Aib = CC(C)(N)C(=O)O
Tests used:
[1] = molecular target: human serum albumin (human) (UniProt P02768); assay: calculated from the SPR affinity
human serum albumin (human), sequence (P02768 25-609 limits assumed): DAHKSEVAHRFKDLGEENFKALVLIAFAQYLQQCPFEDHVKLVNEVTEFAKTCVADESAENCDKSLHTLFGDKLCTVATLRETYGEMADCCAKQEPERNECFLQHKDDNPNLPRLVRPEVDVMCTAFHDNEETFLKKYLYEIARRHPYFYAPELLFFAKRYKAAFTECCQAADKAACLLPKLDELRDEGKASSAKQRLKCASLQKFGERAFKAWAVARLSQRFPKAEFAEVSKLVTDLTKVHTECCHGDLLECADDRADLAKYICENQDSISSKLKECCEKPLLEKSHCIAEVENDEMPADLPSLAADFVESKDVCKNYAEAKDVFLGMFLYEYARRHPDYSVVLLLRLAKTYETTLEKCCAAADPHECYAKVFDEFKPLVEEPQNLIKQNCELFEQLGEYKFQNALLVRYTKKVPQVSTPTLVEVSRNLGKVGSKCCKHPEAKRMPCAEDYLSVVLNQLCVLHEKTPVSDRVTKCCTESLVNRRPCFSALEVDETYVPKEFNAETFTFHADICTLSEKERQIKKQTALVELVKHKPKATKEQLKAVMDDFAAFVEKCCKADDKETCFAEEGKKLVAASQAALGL

rat serum albumin (rat) = rat serum albumin (rat) (UniProt P02770); assay: calculated from the SPR affinity
rat serum albumin (rat), sequence (P02770 25-608 limits assumed): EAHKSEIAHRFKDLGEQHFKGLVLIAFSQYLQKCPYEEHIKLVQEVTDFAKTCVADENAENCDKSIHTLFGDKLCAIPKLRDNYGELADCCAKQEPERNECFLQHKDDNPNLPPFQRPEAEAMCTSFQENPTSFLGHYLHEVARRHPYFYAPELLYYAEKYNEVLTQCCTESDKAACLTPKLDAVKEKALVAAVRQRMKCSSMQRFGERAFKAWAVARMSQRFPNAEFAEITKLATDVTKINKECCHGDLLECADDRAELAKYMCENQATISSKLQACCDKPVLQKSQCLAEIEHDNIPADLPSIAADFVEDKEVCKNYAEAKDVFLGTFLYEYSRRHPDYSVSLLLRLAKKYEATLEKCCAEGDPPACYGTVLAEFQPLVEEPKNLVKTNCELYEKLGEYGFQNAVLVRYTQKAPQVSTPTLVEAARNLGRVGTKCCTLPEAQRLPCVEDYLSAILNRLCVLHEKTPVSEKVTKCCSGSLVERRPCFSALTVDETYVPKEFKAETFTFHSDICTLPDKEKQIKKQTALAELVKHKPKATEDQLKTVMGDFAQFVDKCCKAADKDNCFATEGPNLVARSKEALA

human GIPR [2] = molecular target: T1, human GIPR (human, UniProt P48546 22-466)
T1 sequence (looked up): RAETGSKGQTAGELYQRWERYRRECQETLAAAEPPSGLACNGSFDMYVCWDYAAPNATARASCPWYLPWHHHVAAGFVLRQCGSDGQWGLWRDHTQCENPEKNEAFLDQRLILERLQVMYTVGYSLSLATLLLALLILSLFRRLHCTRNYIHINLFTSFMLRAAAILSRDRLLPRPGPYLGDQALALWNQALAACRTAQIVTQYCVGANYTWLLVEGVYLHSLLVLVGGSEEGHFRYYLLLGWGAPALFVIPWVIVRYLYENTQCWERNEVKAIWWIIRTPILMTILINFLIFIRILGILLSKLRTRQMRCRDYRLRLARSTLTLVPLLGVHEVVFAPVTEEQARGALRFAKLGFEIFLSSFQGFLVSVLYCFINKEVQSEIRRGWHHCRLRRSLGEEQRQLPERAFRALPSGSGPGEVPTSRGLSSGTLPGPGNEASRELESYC

human GLP-1R [3] = molecular target: T2, human GLP-1R (human, UniProt P43220 24-463)
Target sequence in this assay (P43220 24-463): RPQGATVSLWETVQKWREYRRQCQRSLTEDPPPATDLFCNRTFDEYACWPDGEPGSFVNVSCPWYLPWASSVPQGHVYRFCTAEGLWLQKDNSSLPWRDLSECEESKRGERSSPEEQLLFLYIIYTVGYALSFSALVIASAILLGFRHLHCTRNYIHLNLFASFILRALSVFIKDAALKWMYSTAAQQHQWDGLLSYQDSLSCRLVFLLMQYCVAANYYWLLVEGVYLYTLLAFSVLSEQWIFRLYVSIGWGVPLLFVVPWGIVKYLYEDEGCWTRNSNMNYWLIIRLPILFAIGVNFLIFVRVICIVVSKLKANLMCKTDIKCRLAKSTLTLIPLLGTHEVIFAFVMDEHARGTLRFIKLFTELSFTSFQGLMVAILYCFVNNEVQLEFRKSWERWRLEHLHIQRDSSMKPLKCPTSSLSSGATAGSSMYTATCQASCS

human GLP-1R [4] = molecular target: T2, human GLP-1R; assay: cell-based or functional assay
human GLP-1R [5] = molecular target: T2, human GLP-1R; assay: cell-based or functional assay; remark: listed apart in the source
human GCGR = human GCGR (human, UniProt P47871 26-477); assay: cell-based or functional assay
human GCGR, sequence (P47871 26-477): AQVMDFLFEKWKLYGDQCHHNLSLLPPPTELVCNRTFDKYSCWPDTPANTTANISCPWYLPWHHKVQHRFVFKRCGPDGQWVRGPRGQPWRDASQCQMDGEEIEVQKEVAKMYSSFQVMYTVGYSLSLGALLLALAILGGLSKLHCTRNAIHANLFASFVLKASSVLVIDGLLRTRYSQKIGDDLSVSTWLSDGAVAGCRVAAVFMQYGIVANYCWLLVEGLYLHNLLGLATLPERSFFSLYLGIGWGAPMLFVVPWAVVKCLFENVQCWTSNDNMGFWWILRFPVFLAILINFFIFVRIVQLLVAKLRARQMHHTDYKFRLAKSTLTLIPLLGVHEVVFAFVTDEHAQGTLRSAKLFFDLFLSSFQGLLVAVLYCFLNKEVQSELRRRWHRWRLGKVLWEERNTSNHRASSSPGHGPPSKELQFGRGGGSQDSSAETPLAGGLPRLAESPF

human GIPR [6] = molecular target: T1, human GIPR; assay: cell-based or functional assay
human GLP-1R [7] = molecular target: T2, human GLP-1R; assay: cell-based or functional assay; remark: listed apart in the source
human GIPR [8] = molecular target: T1, human GIPR; assay: cell-based or functional assay; remark: listed apart in the source
human GLP-1R (human) = human GLP-1R (human) (UniProt P43220); assay: cell-based or functional assay
human GLP-1R (human), sequence (P43220 24-463): as the sequence (P43220 24-463) above

human GCGR (human) = human GCGR (human) (UniProt P47871); assay: cell-based or functional assay
human GCGR (human), sequence (P47871 26-477): as the sequence (P47871 26-477) above

human NPFF2R = human NPFF2R (human, UniProt Q9Y5X5 1-522); assay: cell-based or functional assay
human NPFF2R, sequence (Q9Y5X5 whole entry): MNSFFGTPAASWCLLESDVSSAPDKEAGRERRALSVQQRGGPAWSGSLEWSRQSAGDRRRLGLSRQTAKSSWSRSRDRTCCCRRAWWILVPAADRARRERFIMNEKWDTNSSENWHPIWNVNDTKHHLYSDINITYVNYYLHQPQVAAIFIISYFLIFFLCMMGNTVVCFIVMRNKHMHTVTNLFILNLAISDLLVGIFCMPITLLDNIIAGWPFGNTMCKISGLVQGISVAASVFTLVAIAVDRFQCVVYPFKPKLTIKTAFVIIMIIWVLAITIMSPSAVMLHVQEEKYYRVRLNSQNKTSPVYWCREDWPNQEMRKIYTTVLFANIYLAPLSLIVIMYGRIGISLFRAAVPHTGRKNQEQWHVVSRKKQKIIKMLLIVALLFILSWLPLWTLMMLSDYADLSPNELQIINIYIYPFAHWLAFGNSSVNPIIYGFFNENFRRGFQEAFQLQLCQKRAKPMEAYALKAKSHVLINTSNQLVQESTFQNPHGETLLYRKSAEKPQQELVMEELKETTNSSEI

GPR10 [9] = molecular target: T3, GPR10 (UniProt P49683 1-370, limits assumed); assay: cell-based or functional assay
T3 sequence (looked up): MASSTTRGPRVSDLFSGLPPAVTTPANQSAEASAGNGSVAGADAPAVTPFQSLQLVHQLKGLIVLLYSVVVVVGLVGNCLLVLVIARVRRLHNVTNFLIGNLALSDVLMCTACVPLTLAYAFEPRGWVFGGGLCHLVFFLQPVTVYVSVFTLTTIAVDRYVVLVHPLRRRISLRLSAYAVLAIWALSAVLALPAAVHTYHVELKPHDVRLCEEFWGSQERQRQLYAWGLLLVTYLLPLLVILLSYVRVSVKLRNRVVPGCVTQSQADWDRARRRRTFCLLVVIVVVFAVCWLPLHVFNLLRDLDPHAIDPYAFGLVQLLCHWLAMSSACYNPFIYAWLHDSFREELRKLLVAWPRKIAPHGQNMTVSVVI

GPR10 [10] = molecular target: T3, GPR10; assay: cell-based or functional assay; remark: listed apart in the source
human GLP-1R [11] = molecular target: T2, human GLP-1R; assay: cell-based or functional assay; remark: listed apart in the source

Question: Which fu (unbound fraction) [1] does the source give for semaglutide (peptide) here?
Answer: The fu (unbound fraction) was 0.69%.

Question: What about the fu (unbound fraction) (rat serum albumin (rat)) of the same molecule?
Answer: Its fu (unbound fraction) is 3.3%.

Question: With NNC0090-2746 (peptide) as the molecule, how does the EC50 (read off the curve), CRE-luciferase reporter, GIPR Creluc (human GIPR [2]) read?
Answer: The EC50 (read off the curve), CRE-luciferase reporter, GIPR Creluc was 0.008 nM.

Question: How did the EC50 (read off the curve), CRE-luciferase reporter, GLP1R-Creluc (human GLP-1R [3]) turn out when Tirzepatide (peptide) was run?
Answer: Its EC50 (read off the curve), CRE-luciferase reporter, GLP1R-Creluc is 0.2 nM.

Question: For H[Aib]EGTFTSDVSSYLEGCAAKEFICWLVKGRG-OH (linker 17-24 via L5A; reading uncertain) [Conjugate 186], which “EC50 Cre-Luc” value (human GLP-1R [4]) is on record?
Answer: Its value is 7.3 nM.

Question: How did the “EC50 cAMP 0% FBS” value (human GLP-1R [5]) turn out when HXQGTFTSDYSKYLDKKAAKEFKQWLLNGPSSGAPPPS (staple K4 on Lys 16, 23; Aib 2) [Conjugate 128] was run?
Answer: The value was 6.64 nM.

Question: And the “EC50 cAMP 0% FBS” value (human GCGR)?
Answer: Its value is 16.2 nM.

Question: How did the “EC50 cAMP 0% FBS” value (human GLP-1R [5]) turn out when HXQGTFTSDYSKYLDKKKAKEFKQWLLNXGRNRNNIA (staple K4 on Lys 16, 23; Aib 2, 29) [Conjugate 129] was run?
Answer: Its value is 31.1 nM.

Question: What about the “EC50 cAMP 0% FBS” value (human GCGR) of the same molecule?
Answer: The value was 56 nM.

Question: Y[Aib]EGTFTSDYSIYKDKQAA[Aib]KFVNWLLAGGPSSGAPPPS (linker 14-21 via staple K4; reading uncertain) [Conjugate 142] was tested. Which “EC50 cAMP 0% FBS” value (human GIPR [6]) did it give?
Answer: The value was 0.008 nM.

Question: And the “EC50 Creluc” value (human GLP-1R [7])?
Answer: Its value is 0.02 nM.

Question: And the “EC50 Creluc” value (human GIPR [8])?
Answer: The value was 0.02 nM.

Question: How did the “EC50 cAMP 0% FBS” value (human GLP-1R [5]) turn out when H[dS]QGTFTSDYSKYLDEKAAKEFIKWLLRA (linker 17-24 via K4; reading uncertain) [Conjugate 123] was run?
Answer: Its value is 2.37 nM.

Question: What about the “EC50 cAMP 0% FBS” value (human GCGR) of the same molecule?
Answer: Its value is 0.451 nM.

Question: Which results are given for Y[Aib]EGTFHSDYDIYKDKQAA[Aib]KFVQWLLAGGPSSGAPPPS (linker 14-21 via staple K4; reading uncertain) [Conjugate 165]?
Answer: EC50 Creluc (human GLP-1R [7]): 13.8 nM; EC50 Creluc (human GIPR [8]): 5.31 nM

Question: For H[dS]QGTFTSDYSKYLDECAAKEFICWLLNGGPSSGAPPPS (linker 17-24 via L4A; ends not checked) [Conjugate 135], which EC50 cAMP 0% FBS (human GLP-1R (human)) is on record?
Answer: The EC50 cAMP 0% FBS was 0.0075 nM.

Question: And the EC50 cAMP 0% FBS (human GCGR (human))?
Answer: The EC50 cAMP 0% FBS was 0.0068 nM.

Question: With SRAHQCS[Nle]ETRTCDINPAWYTG[hArg]GIRPVGRF-NH2 (linker 6-13 via L5; reading uncertain) [Conjugate 263] as the molecule, how does the “NPFF2R EC50 0% FBS” value (human NPFF2R) read?
Answer: The value was 520 nM.

Question: And the “NPFF2R EC50 10% FBS” value (human NPFF2R)?
Answer: Its value is > 10000 nM.

Question: What about the “GPR10 EC50 0% FBS” value (GPR10 [9]) of the same molecule?
Answer: The value was 7.8 nM.

Question: And the “GPR10 EC50 10% FBS” value (GPR10 [9])?
Answer: Its value is 80 nM.

Question: What about the “GPR10 EC50” value (GPR10 [10]) of the same molecule?
Answer: The value was 80 nM.

Question: What does the source list for SRAHQCS[Nle]ETRTCDINPAWYTG[hArg]GIRPVGRF-NH2 (linker 6-13 via L12; reading uncertain) [Conjugate 269]?
Answer: NPFF2R EC50 0% FBS (human NPFF2R): 1600 nM; NPFF2R EC50 10% FBS (human NPFF2R): ~8000 nM; GPR10 EC50 0% FBS (GPR10 [9]): 10 nM; GPR10 EC50 10% FBS (GPR10 [9]): 120 nM

Question: SRAHQCS[Nle]ETRTCDINPAWYTG[hArg]GIRPVGRF-NH2 (linker 6-13 via L1; reading uncertain) [Conjugate 251] was tested. Which “NPFF2R EC50 0% FBS” value (human NPFF2R) did it give?
Answer: Its value is 920 nM.

Question: And the “NPFF2R EC50 10% FBS” value (human NPFF2R)?
Answer: Its value is 1200 nM.

Question: And the “GPR10 EC50 0% FBS” value (GPR10 [9])?
Answer: Its value is 5.9 nM.

Question: What about the “GPR10 EC50 10% FBS” value (GPR10 [9]) of the same molecule?
Answer: The value was 10 nM.

Question: What about the “GPR10 EC50” value (GPR10 [10]) of the same molecule?
Answer: Its value is 10 nM.

Question: Which results are given for HXQGTFTSDYSKYLDEKAAKEFIKWLLNGRNRNNIA (staple K4 on Lys 17, 24; Aib 2) [Conjugate 125]?
Answer: EC50 cAMP 0% FBS (human GLP-1R [5]): 0.21 nM; EC50 cAMP 0% FBS (human GCGR): 0.626 nM

Question: For YXEGTFTSDYSIYKDKQAAXKFVNWLLAGGPSSGAPPPS (staple K5 on Lys 14, 21; Aib 2, 20) [Conjugate 141], which “EC50 cAMP 0% FBS” value (human GLP-1R [11]) is on record?
Answer: The value was 0.022 nM.

Question: And the “EC50 cAMP 0% FBS” value (human GIPR [6])?
Answer: Its value is 0.0048 nM.

Question: What about the “EC50 Creluc” value (human GLP-1R [7]) of the same molecule?
Answer: The value was 0.01 nM.

Question: And the “EC50 Creluc” value (human GIPR [8])?
Answer: Its value is 0.02 nM.

Question: YXEGTFTSDYSIYKDKQAALKFVAWLLAGGPSSGAPPPS (staple K4 on Lys 14, 21; Aib 2; D-Ser 8, 11; Nle 20) [Conjugate 169] was tested. Which “EC50 Creluc” value (human GLP-1R [7]) did it give?
Answer: The value was 1.32 nM.

Question: And the “EC50 Creluc” value (human GIPR [8])?
Answer: Its value is 11.3 nM.

Reference: patent publication US20230071371A1 (Scripps Research, published 2023)
